The results in this text go back to US20160129086A1.

The assay deals with CD20 on human lymphoma cells (Daudi, Jeko-1) (UniProt P11836). As to the kind of experiment: cell-based or functional assay.
Chain of CD20 on human lymphoma cells (Daudi, Jeko-1) (P11836 whole entry): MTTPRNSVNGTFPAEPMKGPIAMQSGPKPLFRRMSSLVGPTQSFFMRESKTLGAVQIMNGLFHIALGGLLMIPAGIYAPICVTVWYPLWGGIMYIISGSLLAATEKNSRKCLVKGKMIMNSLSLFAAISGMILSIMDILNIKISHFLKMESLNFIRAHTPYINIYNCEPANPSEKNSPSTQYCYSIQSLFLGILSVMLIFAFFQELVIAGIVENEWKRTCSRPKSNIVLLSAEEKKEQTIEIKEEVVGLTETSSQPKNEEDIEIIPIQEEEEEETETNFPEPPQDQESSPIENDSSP

Consider 20-2b (from UniProt P01563 24-188), for which the EC50, high-concentration response, in vitro proliferation of Jeko-1 cells was 850 pM and the EC50, low-concentration response, in vitro proliferation of Jeko-1 cells came out at 0.97 pM.

In the case of veltuzumab (antibody), the EC50, in vitro proliferation of Jeko-1 cells was 1500 pM.
